This note sets out measurements from patent US20250235479A1 (INNOBATION BIO, published 2025).

The target in assay [1] is T1, CD22 expressed on cells (U2932, NALM6, K562/CD22+ cells) (UniProt P20273 20-847, limits assumed).
T1 construct: whole, on cells; the cell lines are human lines; also called cells expressing CD22
T1 sequence (looked up): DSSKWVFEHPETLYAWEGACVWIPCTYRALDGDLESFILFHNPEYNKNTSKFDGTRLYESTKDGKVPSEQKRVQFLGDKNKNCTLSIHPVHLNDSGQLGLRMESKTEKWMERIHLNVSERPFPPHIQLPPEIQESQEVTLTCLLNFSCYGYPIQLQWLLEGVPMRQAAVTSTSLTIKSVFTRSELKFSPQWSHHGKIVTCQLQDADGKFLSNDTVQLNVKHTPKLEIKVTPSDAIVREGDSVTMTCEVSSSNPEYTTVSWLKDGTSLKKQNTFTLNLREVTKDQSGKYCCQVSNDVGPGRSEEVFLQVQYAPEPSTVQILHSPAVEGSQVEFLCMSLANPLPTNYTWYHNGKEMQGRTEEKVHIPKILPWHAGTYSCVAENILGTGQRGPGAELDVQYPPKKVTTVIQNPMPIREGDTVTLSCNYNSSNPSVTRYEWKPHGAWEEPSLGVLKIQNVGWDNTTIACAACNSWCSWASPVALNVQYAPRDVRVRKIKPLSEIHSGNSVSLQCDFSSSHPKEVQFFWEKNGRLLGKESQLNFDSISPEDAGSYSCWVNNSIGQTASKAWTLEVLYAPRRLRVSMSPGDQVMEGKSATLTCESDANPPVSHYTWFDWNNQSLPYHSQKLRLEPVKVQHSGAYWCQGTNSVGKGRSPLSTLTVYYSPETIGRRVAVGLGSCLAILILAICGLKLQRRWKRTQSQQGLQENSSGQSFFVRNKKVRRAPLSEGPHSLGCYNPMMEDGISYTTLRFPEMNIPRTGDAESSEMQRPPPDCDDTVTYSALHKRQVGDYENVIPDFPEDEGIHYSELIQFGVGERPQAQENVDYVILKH
Nature of the assay: flow cytometry on U2932 cells expressing CD22. (Flow cytometry measures light scatter and fluorescence of single cells or particles in a stream.)

Assay [2] has as its target T2, CD22 protein (ACRObiosystems Inc., cat #CD2-H52H8, USA) (UniProt P20273 20-687).
T2 construct: Named as the immunogen
T2 sequence (looked up): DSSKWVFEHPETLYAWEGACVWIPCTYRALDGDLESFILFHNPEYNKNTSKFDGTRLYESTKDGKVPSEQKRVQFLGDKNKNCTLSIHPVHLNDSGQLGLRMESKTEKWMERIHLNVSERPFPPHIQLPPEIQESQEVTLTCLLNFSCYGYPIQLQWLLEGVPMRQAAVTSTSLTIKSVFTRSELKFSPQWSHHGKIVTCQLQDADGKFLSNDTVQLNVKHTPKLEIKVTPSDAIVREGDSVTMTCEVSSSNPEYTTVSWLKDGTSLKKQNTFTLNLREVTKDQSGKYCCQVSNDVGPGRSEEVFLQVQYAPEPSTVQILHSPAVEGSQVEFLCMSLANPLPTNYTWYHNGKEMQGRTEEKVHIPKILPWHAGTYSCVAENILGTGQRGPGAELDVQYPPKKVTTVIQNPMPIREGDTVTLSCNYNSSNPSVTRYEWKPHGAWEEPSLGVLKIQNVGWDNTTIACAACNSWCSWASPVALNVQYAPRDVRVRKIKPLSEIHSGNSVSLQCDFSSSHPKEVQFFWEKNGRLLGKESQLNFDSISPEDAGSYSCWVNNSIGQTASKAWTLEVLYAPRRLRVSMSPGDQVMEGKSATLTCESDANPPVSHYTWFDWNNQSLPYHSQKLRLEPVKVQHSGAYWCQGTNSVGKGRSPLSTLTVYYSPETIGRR
The experiment in a line: ELISA screening of hybridoma clones. From the text: A limiting dilution method was used to select a hybridoma that produces an antibody binding to CD22 from among the proliferated hybridomas. First, the number of cells was reduced to 1 cell or less per […], and then it was confirmed by ELISA whether an antibody obtained from a clone proliferated from one cell bound to CD22, and a clone binding to CD22 was selected. The above process was repeated three times to select hybridomas that produced the antibody binding to CD22. The antibody binding to CD22 was obtained in this manner.
A general note: ELISA stands for enzyme-linked immunosorbent assay.

B1: humanized anti-CD22 antibody 2G1(V4) (antibody, V domains shown)
VH: EVQLQESGPGLVKPSQTLSLTCTVSGFSLTSYDISWIRQPPGKGLEWLGVIWTGGGTNYNSALKSRVTISKDNSKSQVSLKLSSVTAADTAVYYCVPHYYGYAMDYWGQGTTVTVSS
VL: EIVLTQSPATLSLSPGERATLSCRASQDINKYIAWYQQKPGQAPRLLIHYTSTRQTGIPARFSGSGSGRDYTLTISSLEPEDFAVYYCLQYDNLLTFGGGTKLEIK
notes: CDR-grafted humanized form of 2G1
On to B1, for which, in assay [1], the binding result is “binds”.

B2: humanized anti-CD22 antibody 2G1(V12) (antibody, V domains shown)
VH: EVQLKESGPVLVKPTETLTLTCTVSGFSLTSYDISWIRQPPGKALEWLGVIWTGGGTNYNSALKSRLTISKDNSKSQVVLTMTNMDPVDTATYYCVPHYYGYAMDYWGQGTTVTVSS
VL: B1 VL
notes: as for B1
Turning to B2, the binding result in assay [1] was “binds”.

B3: 2G1 antibody (mouse anti-CD22 antibody) (antibody, V domains shown)
VH: EVQLQESGPGLVAPSQSLSITCTVSGFSLTSYDISWIRQPPGKGLEWLGVIWTGGGTNYNSAFMSRLSISKDNSKSQVFLKMNSLQTDDTAIYYCVPHYYGYAMDYWGQGTSVTVSS
VL: DIVLTQSPSSLSASLGGKVTITCKASQDINKYIAWYQHKPGKGPRLLIHYTSTLQPGIPSRFSGSGSGRDYSFSISNLEPEDIATYYCLQYDNLLTFGAGTKLELK
notes: Obtained from a mouse hybridoma; also called mouse 2G1 antibody
Regarding B3, the binding result in assay [2] and in assay [1] was “binds” throughout.
